Source: paper doi:10.1101/2022.10.12.511968v1 (biorxiv, 2022)
Values belong to the molecule of their own block, whether it stands above or below them.

Experiments:
[1] = target: T1, METTL7A (TMT1A1; N-GST-METTL7A) (Homo sapiens, UniProt Q9H8H3); assay: TSL S-methylation, TMSL formation by LC-MS/MS, single time-point; assay type: biochemical
T1 sequence (Q9H8H3 1-244): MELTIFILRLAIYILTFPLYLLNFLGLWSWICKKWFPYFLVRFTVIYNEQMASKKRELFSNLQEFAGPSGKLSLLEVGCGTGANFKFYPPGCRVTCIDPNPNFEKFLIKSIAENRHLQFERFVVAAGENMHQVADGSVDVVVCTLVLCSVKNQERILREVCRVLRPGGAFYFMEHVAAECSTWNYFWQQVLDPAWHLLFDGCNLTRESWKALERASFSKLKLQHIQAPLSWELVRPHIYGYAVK

[2] = target: T1, METTL7A (TMT1A1; N-GST-METTL7A); assay: as above; assay type: biochemical; remark: listed apart in the source
purified protein [3] = substrate: C[C@]12CCC(=O)C=C1C[C@@H](S)[C@@H]1[C@@H]2CC[C@@]2(C)[C@H]1CC[C@@]21CCC(=O)O1; assay: purified protein; details: 100 µM SAM, DMPG, pH 7.0, 37 °C
purified protein [4] = substrate: C[S+](CC[C@H](N)C(=O)O)C[C@H]1O[C@@H](n2cnc3c(N)ncnc32)[C@H](O)[C@@H]1O; assay: purified protein; details: 250 µM TSL (saturating), DMPG, pH 7.0, 37 °C, varied: cofactor

Molecule: CC(N)c1cccc(Cl)c1Cl (stereo not drawn) [DCMB, 2,3-dichloro-α-methylbenzylamine]
IC50 [1]: 1.17 µM

Ki [2]: 53.9 µM
Molecule: Nc1ncnc2c1ncn2[C@@H]1O[C@H](CSCC[C@H](N)C(=O)O)[C@@H](O)[C@H]1O [SAH]

B1: METTL7B (TMT1B1; N-GST-METTL7B) (Homo sapiens) (protein)
chain: MDILVPLLQLLVLLLTLPLHLMALLGCWQPLCKSYFPYLMAVLTPKSNRKMESKKRELFSQIKGLTGASGKVALLELGCGTGANFQFYPPGCRVTCLDPNPHFEKFLTKSMAENRHLQYERFVVAPGEDMRQLADGSMDVVVCTLVLCSVQSPRKVLQEVRRVLRPGGVLFFWEHVAEPYGSWAFMWQQVFEPTWKHIGDGCCLTRETWKDLENAQFSEIQMERQPPPLKWLPVGPHIMGKAVK
Km (purified protein [3]): 32.5 µM

B2: METTL7A (TMT1A1; N-GST-METTL7A) (Homo sapiens) (protein)
chain: MELTIFILRLAIYILTFPLYLLNFLGLWSWICKKWFPYFLVRFTVIYNEQMASKKRELFSNLQEFAGPSGKLSLLEVGCGTGANFKFYPPGCRVTCIDPNPNFEKFLIKSIAENRHLQFERFVVAAGENMHQVADGSVDVVVCTLVLCSVKNQERILREVCRVLRPGGAFYFMEHVAAECSTWNYFWQQVLDPAWHLLFDGCNLTRESWKALERASFSKLKLQHIQAPLSWELVRPHIYGYAVK
Km (purified protein [3]): 39.4 µM
Km (purified protein [4]): 53.73 µM
